Measurements from the supplement of paper PMC10724198.
± gives the standard deviation of the averaged measurements.

Key:
[1] = system: Saccharomyces cerevisiae; assay: protein stability index of tFT-peptide fusion (C-terminal peptide) (PSI (0-1 scale)); higher = more stable (slower turnover); settings: genetic background: wild type; temperature: 30 C
[2] = system: Saccharomyces cerevisiae; assay: as above
Experimental: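 MPS profiling in S. cerevisiae of the tFT-X12 degron library: putative degron peptides plus stable controls, 12 aa, fused to the C-terminus of a sfGFP-mCherry timer. Cells are FACS-sorted into 8 mCherry/sfGFP bins and deep-sequenced. PSI runs from 0 (unstable) to 1 (stable). Backgrounds are wild type, das1Δ and doa10Δ at 30 °C, and wild type, das1Δ, cdc34-1 and cdc53-1 at 37 °C; 2-3 technical replicates each.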

[3] = genetic background: cdc34-1, temperature: 37 C
[4] = genetic background: cdc53-1, temperature: 37 C
[5] = genetic background: das1 deletion, temperature: 30 C
[6] = genetic background: das1 deletion, temperature: 37 C
[7] = genetic background: doa10 deletion, temperature: 30 C
[8] = genetic background: wild type, temperature: 30 C
[9] = genetic background: wild type, temperature: 37 C
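Further: PSI is a weighted mean of sequencing reads over stability bins, variants kept only with over 10 reads, mCherry proximal and sfGFP distal, peptide attached via GGGS linker.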

Row | Sequence | protein stability index [1] | protein stability index [2, 3] | protein stability index [2, 4] | protein stability index [2, 5] | protein stability index [2, 6] | protein stability index [2, 7] | protein stability index [2, 8] | protein stability index [2, 9]
1 | IFFFQFLWFCLS | 0.315 ± 0.038 | 0.296 ± 0.0037 | 0.295 ± 0.0059 | 0.305 ± 0.036 | 0.4186 ± 0.0012 | 0.243 ± 0.0098 | 0.206 ± 0.028 | 0.339 ± 0.015
2 | QLIDVGLLNCAA | 0.498 ± 0.079 | 0.499 ± 0.044 | 0.557 ± 0.033 | 0.435 ± 0.03 | 0.611 ± 0.052 | 0.412 ± 0.011 | 0.45 ± 0.027 | 0.5616 ± 0.0023
3 | VVVWLFRIKSNV | 0.425 ± 0.025 | 0.46 ± 0.012 | 0.586 ± 0.0096 | 0.358 ± 0.059 | 0.576 ± 0.005 | 0.279 ± 0.0084 | 0.318 ± 0.022 | 0.497 ± 0.026
4 | RIVLRPPFNSVA | 0.367 ± 0.077 | 0.619 ± 0.015 | 0.727 ± 0.017 | 0.656 ± 0.035 | 0.7428 ± 0.0017 | 0.176 ± 0.0064 | 0.217 ± 0.018 | 0.48 ± 0.0059
5 | FLLFFVLRLLPC | 0.316 ± 0.018 | 0.272 ± 0.0094 | 0.293 ± 0.03 | 0.236 ± 0.035 | 0.396 ± 0.016 | 0.255 ± 0.013 | 0.231 ± 0.026 | 0.376 ± 0.011
6 | SFPPLPPLPLPP | 0.571 ± 0.2 | 0.64 ± 0.032 | 0.688 ± 0.0089 | 0.578 ± 0.0094 | 0.6778 ± 0.0031 | 0.594 ± 0.014 | 0.5917 ± 0.0043 | 0.6445 ± 0.0054
7 | FTRLDYKRIKIV | 0.102 ± 0.024 | 0.184 ± 0.18 | 0.625 ± 0.15 | 0.62 ± 0.017 | 0.768 ± 0.068 | 0.0655 ± 0.014 | 0.0685 ± 0.03 | 0.0698 ± 0.0013
8 | RYVFAFRRNYFC | 0.223 ± 0.015 | 0.448 ± 0.089 | 0.682 ± 0.0095 | 0.636 ± 0.018 | 0.744 ± 0.0096 | 0.171 ± 0.014 | 0.174 ± 0.026 | 0.299 ± 0.038
9 | FLCWLSFIPLLS | 0.38 ± 0.02 | 0.203 ± 0.0093 | 0.164 ± 0.007 | 0.293 ± 0.034 | 0.366 ± 0.0095 | 0.418 ± 0.019 | 0.256 ± 0.017 | 0.32 ± 0.015
10 | LSRLWVVGWVVA | 0.295 ± 0.036 | 0.453 ± 0.019 | 0.472 ± 0.028 | 0.345 ± 0.032 | 0.529 ± 0.0071 | 0.191 ± 0.0034 | 0.234 ± 0.025 | 0.399 ± 0.013
11 | GTHWARLGWLLA | 0.227 ± 0.11 | 0.607 ± 0.03 | 0.711 ± 0.036 | 0.619 ± 0.019 | 0.724 ± 0.022 | 0.161 ± 0.0026 | 0.176 ± 0.023 | 0.379 ± 0.033
12 | RLPVMFWFVCSF | 0.506 ± 0.042 | 0.561 ± 0.053 | 0.641 ± 0.024 | 0.477 ± 0.026 | 0.6288 ± 0.0029 | 0.47 ± 0.038 | 0.466 ± 0.026 | 0.638 ± 0.055
13 | SVQICGFWLILG | 0.386 ± 0.06 | 0.512 ± 0.031 | 0.604 ± 0.046 | 0.416 ± 0.026 | 0.5955 ± 0.0046 | 0.317 ± 0.0037 | 0.333 ± 0.011 | 0.53992 ± 0.00031
14 | FFFFSFFLATFS | 0.305 ± 0.026 | 0.227 ± 0.018 | 0.36 ± 0.016 | 0.288 ± 0.055 | 0.418 ± 0.013 | 0.264 ± 0.029 | 0.26 ± 0.036 | 0.39074 ± 0.00019
15 | LCLLIHFWISHL | 0.244 ± 0.023 | 0.302 ± 0.0069 | 0.44 ± 0.009 | 0.295 ± 0.028 | 0.43 ± 0.019 | 0.167 ± 0.0048 | 0.173 ± 0.013 | 0.2932 ± 0.0011
16 | LFRFSRLFLFVL | 0.207 ± 0.061 | 0.36 ± 0.034 | 0.446 ± 0.11 | 0.578 ± 0.0093 | 0.74 ± 0.028 | 0.214 ± 0.042 | 0.153 ± 0.034 | 0.201 ± 0.017
17 | IRFFLIVFCFLR | 0.284 ± 0.021 | 0.157 ± 0.015 | 0.131 ± 0.017 | 0.251 ± 0.019 | 0.286 ± 0.041 | 0.273 ± 0.0057 | 0.203 ± 0.025 | 0.226 ± 0.022
18 | KKKQAILRTLKI | 0.406 ± 0.0082 | 0.681 ± 0.079 | 0.74 ± 0.026 | 0.663 ± 0.049 | 0.697 ± 0.037 | 0.177 ± 0.045 | 0.197 ± 0.0073 | 0.417 ± 0.013
19 | KRSPPPATPSSG | 0.24 ± 0.034 | 0.6827 ± 0.0047 | 0.73 ± 0.013 | 0.631 ± 0.025 | 0.76 ± 0.043 | 0.6035 ± 0.0057 | 0.623 ± 0.0081 | 0.704 ± 0.012
